Test results published in US6326464.

Assays:
Assay in all cases: cell_activity
Conditions in all cases: H358 cells, 50 ng plasmid
[1] = biological target: wild-type p53 (Homo sapiens) (UniProt P04637)
[2] = tested on: V-336 (VP16-75-336-lz) (Homo sapiens / herpes simplex virus chimera)
[3] = tested on: V-325 (VP16-75-325-lz) (Homo sapiens / herpes simplex virus chimera)

Chain of wild-type p53 (Homo sapiens) (P04637 whole entry): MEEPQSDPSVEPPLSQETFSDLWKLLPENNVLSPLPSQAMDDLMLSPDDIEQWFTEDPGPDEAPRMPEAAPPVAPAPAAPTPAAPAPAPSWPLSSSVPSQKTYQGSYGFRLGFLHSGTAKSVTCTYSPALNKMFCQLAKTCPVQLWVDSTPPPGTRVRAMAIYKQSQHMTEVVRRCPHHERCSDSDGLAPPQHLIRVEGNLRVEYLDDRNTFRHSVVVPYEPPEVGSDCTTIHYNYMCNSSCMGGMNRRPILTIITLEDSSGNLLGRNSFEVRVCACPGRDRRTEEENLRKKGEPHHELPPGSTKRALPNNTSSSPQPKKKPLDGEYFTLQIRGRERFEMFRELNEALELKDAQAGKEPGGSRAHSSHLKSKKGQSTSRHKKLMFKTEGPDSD

In the case of p53RE consensus CAT reporter, the activity (relative CAT activity (vector=1)) [1] is reported as 6, the activity (relative CAT activity (vector=1)) [2] is reported as 16 and the activity (relative CAT activity (vector=1)) [3] is reported as 25.
